In the supplement of paper PMC10567573:
± gives the standard deviation.

Assay: protein stability index of a GFP-peptide fusion (GPS, HEK-293T) (PSI 1-6); higher = more stable
Details: c terminus: a fixed tail appended
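Note: 24-mer peptide tiles fused after GFP, lentivirally expressed, FACS-sorted into six equal bins by GFP/DsRed ratio, decoded by Illumina sequencing, PSI is the read-weighted mean bin number.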

Sequence	protein stability index (treatment: DMSO)	protein stability index (treatment: MLN4924 1 uM, 8 h)
DLGDIVARSESVLLHMPQPVNPEL [TRIM43]	3.67 ± 0.31	3.8 ± 0.25
DLVDLFDGTSQSTGGSADLFGGFA [CLINT1]	2.69 ± 0.23	3.2 ± 0.32
DLYKKVKKNSSPPLSLYGQLLWRE [CRY1]	2.64 ± 0.39	2.67 ± 0.67
DLYRDVMLENYSNLVSVGYQAGKP [ZNF649]	2.82 ± 0.53	2.85 ± 0.23
DNANILLQIDNARLAADDFRTKFE [KRT17]	3.27 ± 0.26	3.71 ± 0.28
DNLLPGMQPSKPQQPSLNTMIQQQ [CLINT1]	4.38 ± 0.29	4.45 ± 0.28
DNWKSQVEPETRAVIRWMHSFNFV [CPN1]	2.26 ± 0.52	2.23 ± 0.14
DQLAFIEELFSLMVVNRLTEELGC [EID1]	3.01 ± 1.2	3.21 ± 0.51
DQRNPAKESLETPSNGRIDIKQLI [SOAT1]	4.13 ± 0.26	4.24 ± 0.23
DRKGYMFDYEYDWIGKQLPTPVGA [CSNK1G3]	2.55 ± 0.23	2.62 ± 0.25
DRLNEQEGVPSVFNPPPSRPLQVN [FAF2]	4.23 ± 0.28	4.25 ± 0.1
DSQEAQSPGHSSAGQEGEDTLRRR [TOR1AIP2]	5.58 ± 0.26	5.45 ± 0.58
DTKMSFQWRIRNLPYPKDVYSVSV [DPCD]	2.79 ± 0.52	2.71 ± 0.65
DTRVYIWDPHNGDILMEFGHLFPP [WSB1]	2.38 ± 0.98	2.42 ± 0.44
DWEIQEDSRLMCSSVQKALFEEED [CCDC3]	5.34 ± 0.25	5.54 ± 0.36
DYGRKAEELLWRKVYYEVIQLIKT [SMG5]	2.71 ± 0.57	
DYHLLHPVENIPEIILYWKHSTIF [SLC25A25]	2.71 ± 0.46	2.76 ± 0.63
DYLIQATNETNVNIPQMADTLFER [SNAP91]	3.64 ± 0.29	3.75 ± 0.2

Sequence	protein stability index (treatment: DMSO)	protein stability index (treatment: MLN4924 1 uM, 8 h)
EAAFHPIEEYMVHVEEHFQLLARR [FUT8]	3.06 ± 0.29	3.34 ± 0.36
EANGLLPDDKLTLFCEVSVVQDSV [SPOPL]	2.88 ± 0.49	3.03 ± 0.66
EANSAKVQEDLEAEFQSLFSLLEE [FSD1]	5.02 ± 0.09	5.05 ± 0.12
EDEKLCDPNTRPVGEKNCTGPPCD [ADAMTSL2]	5.47 ± 0.21	5.46 ± 0.26
EDGRPSLGSPYGQPPRFPVPHNGS [PDLIM4]	4.8 ± 0.17	4.63 ± 0.26
EDQWGKGTLTPRMTTDFDLSLDNS [TRIM9]	4.7 ± 0.18	4.9 ± 0.33
EDSAESRPWRAGVLAEGDNASRSL [PSD2]	5.21 ± 0.18	5.14 ± 0.084
EDVKCQEDQKLQVLLTQIESKKHQ [TRIM15]	5.12 ± 0.32	5.18 ± 0.1
EEALKDEEERAQDRIATTDDTTAM [MAGEA10]	5.7 ± 0.17	5.47 ± 0.24
EEKVRDLLWAKFTNSDTPTSFNHM [TOR1AIP2]	3.08 ± 0.12	3.19 ± 0.13
EELANLRASQREYEELRNSERAEV [RSPH3]	5.21 ± 0.4	5.18 ± 0.31
EELDKYWSQQIEESTTVVTTQSAE [KRT18]	5.16 ± 0.27	5.23 ± 0.25
EELEQEELNKKMTNIRLPNVPSSS [CHMP4C]	5.27 ± 0.14	5.29 ± 0.15
EELERRFEDEVKRLGWQQQAELQE [MTUS2]	5.01 ± 0.51	5.24 ± 0.35
EELPCTCPLCTSDRGSCVSTTEGI [RHOBTB3]	4.53 ± 0.22	4.62 ± 0.27
EEPSNKRVRPLARVTSLANLISPV [NET1]	3.43 ± 0.47	3.44 ± 0.19
EEREKEAAEQAERSQSSIVPEEEQ [SMARCE1]	5.62 ± 0.36	5.57 ± 0.15
EESPNGSEGACEKEKQSRDFQGRI [RHOBTB1]	5.35 ± 0.21	5.32 ± 0.46
